The values below come from patent publication US20250313627A1.

The target of assay [1] is human ROR1 (Receptor Tyrosine Kinase-Like Orphan Receptor 1) on the cell surface (human) (UniProt Q01973). In words: flow cytometry, B16-F10 cells expressing human ROR1 (high density).
The target is the same in assay [2]. The description is as above. The source holds these as a separate data set.
The target is the same in assay [3]. The assay is described as above. The source holds these as a separate data set.
Assay [4] shares this target. The description is as above. This is another data set of the same source.
Assay [5] shares this target. Described as above. The source holds these as a separate data set.
Assay [6] shares this target. The assay is described as above. This is another data set of the same source.
Assay [7] shares this target. In words: flow cytometry, LS174T cells expressing human ROR1 (low density). A general note: Flow cytometry measures light scatter and fluorescence of single cells or particles in a stream.
Assay [8] has the same target. The assay is described as above. The source holds these as a separate data set.

human ROR1 (Receptor Tyrosine Kinase-Like Orphan Receptor 1) on the cell surface (human), sequence (Q01973 30-937): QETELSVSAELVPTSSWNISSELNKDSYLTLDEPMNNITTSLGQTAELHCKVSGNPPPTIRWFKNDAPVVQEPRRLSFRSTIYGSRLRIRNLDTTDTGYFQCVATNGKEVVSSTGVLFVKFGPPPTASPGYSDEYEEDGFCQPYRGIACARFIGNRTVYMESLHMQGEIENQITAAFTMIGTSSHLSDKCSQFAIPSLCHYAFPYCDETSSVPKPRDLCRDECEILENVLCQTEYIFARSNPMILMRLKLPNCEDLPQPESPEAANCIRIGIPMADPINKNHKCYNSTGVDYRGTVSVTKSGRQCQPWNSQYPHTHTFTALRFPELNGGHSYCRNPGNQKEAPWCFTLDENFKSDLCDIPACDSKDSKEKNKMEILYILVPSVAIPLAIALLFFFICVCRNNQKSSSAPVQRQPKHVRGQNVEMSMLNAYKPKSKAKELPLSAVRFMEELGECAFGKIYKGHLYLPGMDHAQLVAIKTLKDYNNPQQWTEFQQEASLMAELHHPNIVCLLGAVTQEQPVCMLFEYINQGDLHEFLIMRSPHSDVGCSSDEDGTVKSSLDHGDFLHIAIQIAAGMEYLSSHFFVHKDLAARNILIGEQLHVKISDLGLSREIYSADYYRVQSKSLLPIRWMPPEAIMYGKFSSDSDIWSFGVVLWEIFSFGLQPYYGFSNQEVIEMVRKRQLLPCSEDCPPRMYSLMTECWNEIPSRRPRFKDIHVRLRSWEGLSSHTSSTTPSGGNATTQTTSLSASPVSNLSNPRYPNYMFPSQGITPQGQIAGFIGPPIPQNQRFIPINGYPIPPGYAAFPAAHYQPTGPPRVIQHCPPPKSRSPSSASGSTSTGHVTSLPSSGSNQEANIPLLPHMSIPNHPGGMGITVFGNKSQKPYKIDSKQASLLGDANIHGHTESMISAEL

On to “Hen Egg Lysozyme (HEL)-specific antibody”, for which the MFI in assay [1] came to 9.86; in assay [2], 12.1; in assay [3], 6.85; in assay [4], 3.86; in assay [5], 13.3; in assay [6] it was 1140.
Take Human IgG1 (antibody): the MFI in assay [7] is 30.8; in assay [8], 316.
On to “goat anti human IgG-Fc specific PE secondary antibody, alone”, for which the MFI in assay [7] amounted to 22.6; in assay [8], 45.3; in assay [1] it was 5.67; in assay [2], 15.5; in assay [3] it was 4.45; in assay [4], 3.01. The MFI in assay [5] turned out to be 9.92; in assay [6], 125.
“mIgG-PE (PE labeled mouse IgG Ab) (antibody)”: the MFI in assay [7] was 23.2; in assay [8], 54; in assay [1], 6.1; in assay [2], 4.36; in assay [3], 4.31; in assay [4], 2.08. Moreover, the MFI in assay [5] turned out to be 6.53; in assay [6] it was 94.6.
